From PMC8867190, “Ultrasensitive DNA‐Biomacromolecule Sensor for the Detection Application of Clinical Cancer Samples”

Key:
Luteinizing hormone (LH) = Luteinizing hormone (LH) (UniProt P01215;P01229 25-116;21-141); experiment: electrochemical strand displacement (SWV); 10 pM-10 uM LH; detection limit 10 pM (not a Kd); displaces signal probe; 10 mM phosphate buffer, 1 M NaCl, pH 7.4, room temperature; 30 nM aptamer/signal duplex (prepared in 20 mM Tris, 50 mM MgCl2, pH 8.0, diluted 60 uL into 1940 uL PBS); settings: protein: commercial; copies: 1;1; assayed prehybridized 1:1 with signal probe S3 (3'-MB), complementary to aptamer nt 1-15; S3 is displaced by target; G-quadruplex predicted
[1] = molecular target: Neutrophil gelatinase-associated lipocalin (NGAL) (UniProt P80188 21-198); experiment: electrochemical strand displacement (SWV); 100 nM NGAL; signal gain 200.85%; 10 mM phosphate buffer, 1 M NaCl, pH 7.4, room temperature; 30 nM aptamer/signal duplex (prepared in 20 mM Tris, 50 mM MgCl2, pH 8.0, diluted 60 uL into 1940 uL PBS); settings: protein: commercial; assayed prehybridized with NGAL-SP S7 (3'-MB), displaced by target; printed S7 only partly complementary
Nucleolin (NCL) = Nucleolin (NCL) (UniProt P19338 2-710); experiment: electrochemical strand displacement (SWV); 100 nM NCL; signal gain 357.19%; 10 mM phosphate buffer, 1 M NaCl, pH 7.4, room temperature; 30 nM aptamer/signal duplex (prepared in 20 mM Tris, 50 mM MgCl2, pH 8.0, diluted 60 uL into 1940 uL PBS); settings: protein: commercial; assayed prehybridized with NCL-SP S10 (3'-MB), displaced by target; printed S10 only partly complementary
Chain of Nucleolin (NCL) (P19338 2-710): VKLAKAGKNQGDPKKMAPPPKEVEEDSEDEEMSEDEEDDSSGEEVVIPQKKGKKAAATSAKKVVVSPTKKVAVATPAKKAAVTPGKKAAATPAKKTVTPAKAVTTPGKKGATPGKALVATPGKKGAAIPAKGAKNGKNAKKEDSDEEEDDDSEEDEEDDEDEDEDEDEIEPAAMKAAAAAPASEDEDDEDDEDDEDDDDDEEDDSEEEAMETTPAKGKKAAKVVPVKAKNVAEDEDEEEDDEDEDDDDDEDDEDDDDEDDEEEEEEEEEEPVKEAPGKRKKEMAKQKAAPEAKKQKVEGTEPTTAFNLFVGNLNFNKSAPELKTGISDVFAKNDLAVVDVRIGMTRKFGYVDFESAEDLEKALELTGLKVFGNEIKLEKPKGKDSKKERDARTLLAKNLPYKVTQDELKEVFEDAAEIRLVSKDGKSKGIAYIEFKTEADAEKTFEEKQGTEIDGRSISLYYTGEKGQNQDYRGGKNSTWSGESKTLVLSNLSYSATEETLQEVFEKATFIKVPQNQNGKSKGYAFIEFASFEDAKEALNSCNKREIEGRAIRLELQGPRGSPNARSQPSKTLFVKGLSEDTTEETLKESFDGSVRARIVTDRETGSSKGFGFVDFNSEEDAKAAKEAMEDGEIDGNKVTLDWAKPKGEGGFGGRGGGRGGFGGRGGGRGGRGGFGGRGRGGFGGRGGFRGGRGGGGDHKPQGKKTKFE

Chain of Neutrophil gelatinase-associated lipocalin (NGAL) (P80188 21-198): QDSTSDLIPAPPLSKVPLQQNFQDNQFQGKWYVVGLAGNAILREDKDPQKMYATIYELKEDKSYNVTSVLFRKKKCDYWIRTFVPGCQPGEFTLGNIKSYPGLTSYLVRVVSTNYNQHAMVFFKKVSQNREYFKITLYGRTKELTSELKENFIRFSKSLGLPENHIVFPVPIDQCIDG
Chain of Luteinizing hormone (LH) (P01215 25-116, chain 1 of 2): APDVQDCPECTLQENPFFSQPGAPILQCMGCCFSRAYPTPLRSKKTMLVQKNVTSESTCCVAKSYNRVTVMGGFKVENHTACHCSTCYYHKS
Chain of Luteinizing hormone (LH) (P01229 21-141, chain 2 of 2): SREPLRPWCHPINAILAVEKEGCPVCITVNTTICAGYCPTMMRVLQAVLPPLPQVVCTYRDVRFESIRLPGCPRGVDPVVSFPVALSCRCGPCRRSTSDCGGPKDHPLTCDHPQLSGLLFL

## TATGGTATGCTGTGTGGTATGGGGTGGCGTGCTCT (structured_DNA) [LH aptamer]
Luteinizing hormone (LH)
  binding result: binds

B1: NGAL aptamer (ssDNA)
DNA: AGCAGCACAGAGGTCAGATGGCGCTGGATAGCAAGATCACGTTATCATCGTAAACCCTATGCGTGCTACCGTGAA
[1]
  binding result: binds

## GGTGGTGGTGGTTGTGGTGGTGGTGGTTTTTT (ssDNA) [Nucleolin aptamer]
Nucleolin (NCL)
  binding result: binds
